This is an account of results in the nanobody polyreactivity screen of Harvey et al. (2022).

A short description of this data set: yeast display, Sf9 membrane polyspecificity reagent, FACS + sequencing; frameworks hold sequencing errors. The method in brief:
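Nanobodies from a synthetic yeast display library (Saccharomyces cerevisiae BJ5465), induced 36–48 hours with galactose, were stained 1 hour at 4 °C with 10% biotinylated, detergent-solubilized Sf9 membrane reagent, enriched on streptavidin microbeads, then FACS-sorted. Anti-HA (expression) and streptavidin (reagent binding) fluorescence set low and high (top ~1%) gates. Polyreactivity labels come from the gate of origin. Genes were colony-PCR amplified, MiSeq 2 × 250 sequenced and filtered by CDR length.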
In the case of “QVQLVESGGGLVQAGGSLRLSCAASGRIYPYYDMGWYRQAPGKERELVAAITSGTGTYYADSGKGRVTLSRDNAKTTVYFQMYSLKPEDTAVYYCNARRYLRGYWGQGTQVTLSS”, the “polyreactivity (PSR sort gate)” value was “low polyreactivity”. The result for “QVQLVESGGGLVQAGGSLRLSCAASGFTFRQYAMGWYRQAPGKEREFFADITFSGDNTRYADSVKGRFTISRDNAKNTVYLQMNSLKPEDTGVYYCNADYLVSWLQFDYWGQGTQVTVSS” reads “low polyreactivity”; that for “QVQLVESGGGLVQAGGSLRLSCAASGRILSVYAMGWYRQAPGKERELVAAIEYSGGSTNYADSVKVRFTISRDTSKHTVYLLMNSLLPEDTAVYYCNGEGGAIAWRYLLEYLYSWGQGTQVTVSS”, “low polyreactivity”; that for “QVQLVESGGGLVQAGGSLRLSCAASGRIFESYAMGWYRQAPGKERELVAAISSGGGTTYYADSVKGRFTISRDNAKNTVYLQMNSLKPEDTAVYYCAAGPWFYYWGQGTQVTVSS”, “low polyreactivity”. Take “QVQLVESGGGLVQPGGSLRLSCAAYRSTFTDYDKGWYRQAPGKERELVAAITSGGSTNYADSVKGRFTISRDNAKNTFYLQLNSLKPEDTAVYYCAAADSDRKYDYWGQGTQVTVSS”: the “polyreactivity (PSR sort gate)” value is on record as “low polyreactivity”. The result for “QVQLVESGGGLVQAGGSLRLSCAASGRILGFYAMGWYRQAPGKERELVDSINWSGTRTYYADSVKARFTISRDNAKNTVYLQLNSLKPEDTAVYYCAAERYPYGVTYSKLDYWGQGTQVTVSS” reads “high polyreactivity”; that for “QLQLVESGGGLVQAGGSLRLSCAASGRTFDDYAMGWYRQAPGKERELVAAISGSAGSTYYADSVKGRFTISRDNAKNTVYLQMNSLKPEDTAVYYCARGYGTYPLYYQYLAYYYWGQGTQVTVSS”, “low polyreactivity”; that for “QVQLVESGGGLVQAGGSLRLSCAASGSTFSWNTMGWYRQAPGKERELVAAINSGGSTYYADSVKGRFTISRDNAKNTVYLQMNSLKPEDTAVYYCAARTNYYGRFDYWGQGTQVTVSS”, “low polyreactivity”.

With “QVQHVESGGGLVQAGGSLRLSCAASRSTFYYYAMGWYRQAPGKERELVAAISRGGGSTYYADSVKGRFTISRDNAKNTVYLQMNSLKPEDTADDYCAARRVGGGFYTWRNPAYEYWGQGTQVTVSS”, the “polyreactivity (PSR sort gate)” value is on record as “high polyreactivity”.

Turning to “QVQLVESGGGLVQAGGSLRLSCAASGSNFSRNTMGWYRQAPWKERELVAGISSSGSRTYYADSVKGRFTISRDNAKNTVYLLMNSLKPEDTAVYYCAAEHQRSRGRRYYIGYDYWGQGTQVTVSS”, the “polyreactivity (PSR sort gate)” value is given as “low polyreactivity”. Next, “QVQLVESGGGLVQAGGSLRLSCAASGRSFPWYGMGWYRQAPGKERELVAAISRTGGNTYYADSVKGRFTISRDNAKNTVYLQMNSLKPEDTAVYYCIAGYYSNRSYFYDYGYWGQGTQVTVSS”: “high polyreactivity”. On to “QVQLVESGGGLVQAGGSLRLSCAASGLIFARNAMGWYRQAPGKERELVAAITYSGSRTYYADSVKGRFTISRDNAKNTVYLQMNSLKPEDTAVYYCAARHRYSAVTEYNYWGQGTQVTVSS”, for which the “polyreactivity (PSR sort gate)” value was “high polyreactivity”.

For the sequence “QVQLVESGGGLVQAGGSLRLSCAASGIILDPNAMGWYRQAPGKEREMVAGITRSGVSTYYADSVKGRFTISRDNAKNTVYLQMNSLKPEDTAVYYCANDRIYGSKGEDDDYWGQGTQVSVSS”, the “polyreactivity (PSR sort gate)” value is listed as “low polyreactivity”. Next, “QVQLVESGGGLVQAGGSLRLSCAASGSIFYSYAMGWYRQAPGKERELVAAISFSGGSTYYADSVKGRFTISRDNAKNTVYLHMNSLKPEDPAVYYCNTLSADTFDYWGQGTQVTVSS”: “low polyreactivity”; “QVQLVESGGGLVQAGGSLRLSCAASGRTFYRNVMGWYRQEPGKEREMVASIRTSGGSTYYADSVKGRFTISRDNAKNTVYLQMNSQKPEDTAVYYCATRVFVYPYRRYSHYDYWGLGTQVTVSS”: “high polyreactivity”. The result for “QVQLVESGGGLVQAGGSLRLSCAASGSTFYPYAMGWYRQAPGKERELVAAITTRGRTYYGDSVKGRFTISRDNAKYTVYLQMNSLKPEDTAVYYCNARRYFSRDTSGYNYWGQGTQVTVSS” reads “high polyreactivity”; that for “QVQLVESGGGLVHAGGSLRLSCAASGFTSYENAMGWYRQAPGKEREFVAAISYIAGNTYYSDSVKGRFTISRDNAKNTVYLQMNSLKPEDTAVYYCAKTKYILPGNAYVNYDTTAYDYWGQGTQVTVSS”, “low polyreactivity”; that for “QVQLVESAGGLVQAGGSLSLSCAASGRIFTDYAMGWYRQAPGKERELVARISRSDGSTYYADSVKGRFSISRDNAKNNVYLQMNSLKAEDTAVYYCAAQWTDGRRDHWWDKGFYYWGLGTQVTVSS”, “low polyreactivity”. For the sequence “QVQLVESGGGLVQAGGSLRLSCAASGSTLVTNSMGWYRKAPGKERELVAAITFSGGTTYYADSVKGRFTISLDNAKNTVYLQMNSLKPEDTAVYYCAAEIWLEYVGYDYCGQGTQVTVSS”, the “polyreactivity (PSR sort gate)” value is listed as “high polyreactivity”. Next, “QVQLVESGGGLVQAGGSLRLSCAASGITFLDYTMGWYRQAPGKERELVATISKSGGSTYYADSVKGRFTISRDNAKNTVYLQMNSLKPEDTAVYYCAARGFTFWRYYYWGQGTQVTVSS”: “high polyreactivity”. Turning to “QVQLVESGGGLVQAGGSLRLSCAASGRILVLNAMGWYRQAPGKERELVADITSGGSTYYADSVKGRFTISRDNAKNTVYLQMNSLKPEDTAVYYCAADLPYSLDYRSEDDYWGQGTQVTVSS”, the “polyreactivity (PSR sort gate)” value is “low polyreactivity”. Next, “QVQLVESGGGLVQAGGSLRVSCAASGSIFGTYAMGWYRPAPGKERELVAAITSDGVDTYYADSVKGRFTISRDNAKNTVYLQMNSLKPEDTEVYYCAAEYEGLYGYGYWGQGTQVTVSS”: “high polyreactivity”. In the case of “QVQLVESGGGLVQAGGSLRLSCAASGSTFNGNVMGWYRQAPGKDRELVAGISKSGGTTYYADSVKGRFTISRDNAKNTVYLQMNSLKPEDTAVYYCDARGRVRYYPQYDYWGQGTQVTVSS”, the “polyreactivity (PSR sort gate)” value is “high polyreactivity”. Next, “QVHLVESGGGLVQAGGSLRLSCAASGRTFPPYAMGGYRQAPGKERELVAAISIVGSTYYADSVKGRFTISRDNAKNTVYLQMNSLKPEDTAVYYCAADVAGYYKLYDYWGQGTQVTVSS”: “high polyreactivity”; “QVQLVESGGGLVQAGGSLRLSCAPSGRTLFTNAMGWYRQAPGKERELVAAISIGGTTYYADSVKGRFTISRDNAKNTVYLQMNSLKPEDTAVYYCNKVRRFHSEYGYWGQGTQVTVSS”: “high polyreactivity”. For “QLQLVESGGGLVQAGGSLRLSCAASGRIFYQTAMGWYRQAPGKERELVADIASGGSTYYADSVKGRFSISRDNAKNTVHLQMNSLKREDTAVDYCATAVLYGDGWYYYWGQGTQVTVSS”, the “polyreactivity (PSR sort gate)” value was “low polyreactivity”.

In the case of “QVQLVESGGGLVQAGGSLRLSCAASGSIFIYNARGWYRQAPGKERELVAAINWTGGSTYYADSVKGRFTISRDNAKNTVYLQMNSLKPEDTAVYYCNALRYGSTRGYDYWGQGTQVTVSS”, the “polyreactivity (PSR sort gate)” value is given as “high polyreactivity”. Next, “QVQLVESGGGLVQAGGSLRLSCAASGRIFAWDAMGRYRQAPGKERELVAAITWGGGRTYYADSVKGRFTISRDNAKNTVYLQMNSLKPEDTAVYYCAAYSYKEEAYRGVAQERDYWGQGTQVTVSS”: “low polyreactivity”; “QVQLVESGGGLVQAGGSLRLSCAASGSTFYKYAMGWYRQAPGIEPELVAAISRGGSTYYADSVKGRFTISRDNAKNTVYLQMNSLKPEDTAVYYCAAETVSYYSKYDYWGQGTQVTVSS”: “low polyreactivity”. With “QVQLVESGGGLVQAGGSLRLSCAASGFTFKKNAMGWYRQAPGKERELVDAISISGGSTYYADSVKGRFTISRDNAKNTVYLQMNSLKPEDTAVYYCAAVYISRNFFGRARGDYWGQGTQVTVSS”, the “polyreactivity (PSR sort gate)” value is listed as “low polyreactivity”. The result for “QVQLVESGGGLVQAGGSLRLSCAASGINFYDYAMGWYRQAPGKEREFVAAISWDGVSTYYADSVKGRFTISRDNAKNTVYLQMNSLKPEDTAVYYCAARAVTDDYYEFDYWGQGTQVTVSS” reads “low polyreactivity”; that for “KDQIVQSGAGLVQAGGSLRISCAPSGFIFTYNAMGWYIQAPGKEREIVATITWSGGSTYYADSVKGRFTISRDNAKNTVYLQMYSLNPEDTAVYYCAVDYSRHGYWSPVYVFNYWGQGTKVTVSS”, “low polyreactivity”; that for “QVQLVESGGGLVQAGGSLRLSCAASGSTFARYAMGWYRPAPGKERELVAVIRSGGSTNYADSVKGRFTISRDNAKNTVYLQMNSLKPEDTAGAADQWTIHRWATYGYWGQGTQVTVSS”, “low polyreactivity”. Regarding “QVHLVESAGGLVQAGGSLRLRCDASGRTFVLYTMGWYRQAPGKERELVAAIYGSGGRTYYADSVKGRLTISRDNAKNTVYLQMNSLKPEDTAVYYCAAYCQGLPLYGYWGQGTQVTVSS”, the “polyreactivity (PSR sort gate)” value is “high polyreactivity”. The result for “QVQLVESGGGVVQAGGSLRISCDASGRTFWNYAMGWYRQAPGLERELVAVIRFSDGSTYYADSVKGRFTISRDNAKNTVYLQRNSLKPEDTAVYYCAAKGPRRWGSGFDYWGQGTQVTVSS” reads “low polyreactivity”.

As to “QVQLVESGGGLVQAGGSLRLSCAASGSISATYAKGWYRQAPGKERELVAAISRNGGSTYYADSVKGRFTISRDNAKNTVYLQMNSLKPEDTAVYYCATSSSKSMYWGQGTQVTVSS”, the “polyreactivity (PSR sort gate)” value is given as “high polyreactivity”. Next, “QVQLVESGGGLVQAGGSLRLSCAASGSIFYVYAMGWYRQAPGKEREMVAAINTSGGSTFYADSVKGRFTISRDNAKNTVYLQMNSLKPEETAVYYCAAERYRYRSTDTMVYWGQGTQVTVSS”: “low polyreactivity”; “QVQLVESGGRLVQAGGSLRLSCAASGSIFWYNSMGWYRQAPGKERELVAAISRRGGTTYADSVKGRFSISRDNAKYTVYLQLNSLKPEDTAVSYCGTTYTSRYYPYDYWGQGTQVTVSS”: “high polyreactivity”; “QDQHVESGGGLVQAGGSLRLSCAASGSIFPWYTMGWYRQAPGKERELVASITKSGARTYYADSVKGRFTISRDNAKNTVYLEITSLKPEDTAVYYCAASLWQRAKVRYQYWGQGPQVTVSS”: “high polyreactivity”.

For the sequence “QVQLVESGGGLVQAGGSLRLSCAASGIIFDHYAMGWYRQAPGKERELVAAISTGGGNTYYADSVKGRFTISRDNAKNTVYLQMNSLKPEDTAVYYCAARRGTGSYSYRYPYGYDYWGQGTQVTVSS”, the “polyreactivity (PSR sort gate)” value was “low polyreactivity”.
